Results from the DeepSol protein solubility set.

Assay: soluble on expression in E. coli; label from the status in PepcDB or PDB records
With “MAHHHHHHMKKLGLVLDAAAVEKSQRDLQSYQIKNNNSLQLRAFLLNESGMFTKDGRKLPGSVTKEVIDDTSKRIIGRGASGAVYFAKLKDGGPVALKHIPITSKPHRDEVDRELSFFSSQSNSPFVMKNLGAFWDSEEAAIVIPMEWMAYTLKDLSCFWEGIEETMLRDIFFQVVSGLVYLHDTKRVIHRDLKPSNLLIRDDGYVKIGDFGVSKLVHTLDVSSTYVGTMYFMAPERLEQGAYGFNSDVWSLGLTVLSTITGKNPWAPPEEMNIFQLLGRIAGDTTPTLPEKPAYSEEARDFVKKCLVRDPQERPSTAELLKHPFFKGCTEASAVANVKQGVDYMTRLINSDAKKNGLLKRSPEDVTKEVNAKLDRLGDL” the “soluble on expression in E. coli” value was “soluble”. For “MAHHHHHHMKPSSISGEAPPLAVVGGNCSVFGFDRFGAERYWTVTGDQVTAMALMPWTSVSDSGSAPLSLLVASDDFEVRVYDGEEAIATVHEVDRVQKLVPLWQPSRNLDTETAAADSAGRYAYLLENGTVGMYERGERVWRVRGKSVPVSAAFCDVDGDGVAELVIGWSNGRVEVRTDRGGGLEKGGSVLFRDTYSSAVAAVLSEDYRQDGVPLPVICTVDGTVRGLTLLETRKDEAAEVRQLQVLEALVQEKQQLAAQLTSLEEQLARRAAGAQDTTMPESGVEVRCCCSANLATKHVEVHVEVTGPAAKRGDIVVHSCLLQCEIWATAAEQDTIAFANAEPSTTLVCSFAHADDLPLNVSASVAVGPAFGDSYRIHEVTVRVPRFVMYQLPYTIPPEQQRQRQGKTVTYQQPDGCVLLQWRELLRLDVIERWLRHSFCVPEDVALLDANAPTDPVLHLELIHVRDGSSFGIEVRNAAASGAAFNTITLWSDHLAPCGAVIDAFVEDLKGGWADGRADPVAVRCEMPLELERLRAIFARVDEFNEVRMKLTTDMADAATVVKTLLGRAEDARLLGDMASMKKSYAVLYDVDQELLCENAKRINNYEELKLALKEVNTCIQQAGMVRIGPARAQLIASCRNALKENQVNSLLEIIRTGSE”, the “soluble on expression in E. coli” value was “not soluble”. With “MAHHHHHHMKSMRAVTMRAFGDVDVMHISEVTGVSLSRPSDVIIRVMAAGVNRADVSQRQGHYPPPKGSSEILGMEVSGVVEKVGENVKRFKEGDRVMALLTGGGYAEMAVAHEGSVMKIPEGYSFVEAAAIPEAFLTAWQALKLHGNLQKGQHMLFHAGASGVGTAALQLAEKYFRATAIATCSSGKVEFCKRFAKFVVDRSPDASGKCFSSKVRDAVKGETVNLIVDPVVGGTYLQEDGEVLAQDGKVVLLAFMGGAKVSLDVMPFFRKRASVIFSKLRDQTDEYKEALVRSFEEEVIPYMTRREIVPVVQCTYALEEVAAAHKLMENNKSNGKVILTVGKAE” the “soluble on expression in E. coli” value was “soluble”. For “MAHHHHHHMLCGSRATFARTAVAFFNMKHFQTKKKYNLTPQNIYETFSTVLLPRDRLLRQSVSGGGGSRVLVLDAQQRVKGVYLPVFCMPHPSTVTNGSNSLGVAVADYTRSIEATLAMHKAGGGGGTAPTLPTVLVVLSHPQGLAYGTFRADGTPGVPMKNLALAPILANARTQQASTNIASTPLRTSGLGTVMPLLNVSHRHAEVVRDIYTELNECEHVAELAACSTFVWVQRDNMSSMTFEKAQSSERYWERAKNDGDSAAAPPPGAISFLDRRWVLLMDVALHPDTGLGLYARDPATGDRIVNATGVQSALCRGLLLLDHVPRTVANTARAANRETGVSG”, the “soluble on expression in E. coli” value was “soluble”. With “MAHHHHHHMLHNDKKNPREALDEEKPRKSNPGEVGTHRKARDTKGNKNKSGEGHITKVEGKADCEPHDVKRKGEKDKVLIQCKELQRKELEALKLIYVKDKELAIQNENDEKRDTIIHMHLNDENISDNVINLTFELPKDYPLKSFLLININVKNFTPDMNNYVNQEVYKDMPNYIAHENSILSIIYRINELVENIQNRKETLVDQSYSSSEEREENAEEEAFDSSKDQLIKDHVTFLYCSGMTYSQHRRVLARRLCYSHHILSLVKRTCIIKWAKELKIGGYSKIGYPGIIICEGPKEEVDFYINSLNKLRWKHFDCRGMDDIILKEYEDLDDARVLPKTMYELDPKGMSTLSNICTECGLRDLFLTSMKIYHS” the “soluble on expression in E. coli” value was “not soluble”. For “MAHHHHHHMLKCARYLFGPPNTKRKCAPLFSARNFSILERYIRAKPLSHELKIEEAKNEGIKGEGDRNGEERKASEKSASTYYPPNITRGVIPKSAYMNTWKIPEQPANPKFLKVALIGAPNAGKSSLLNSILNKTISAVSPKINTTRQDIKGIYTKDNVQLIFIDSPGIVPSHKKKKFCKELVSYAWKGYEEADLVLFIADTVKRPTHDVLNIIRMLAPKKVEAYSSGSEDEGETQHYMFNHPSEDHDQEEHFEWNGKPQSDLNSSSTNEELYEKSQKNVQKFVEYFSTAMEKEAKYSDKSVKENLLKNRKKIIESYSNDVDGKDSPNGEGEQQKLVPPVILVLNKVDLCTHNKWANARAKEFMSNGNFDNIFFISAKYNKGVEELLDYIAKFKAKNQFWVYPKDSNTTLTKVQVVEQLINTYLYCWFNKDVPYRVKHHMLSWCVNLNNSLIIEYQIVVKSPKVAKMICGVHNKLIINMRRNVSYKLTQLWGQNVYVHIHVKSVSA”, the “soluble on expression in E. coli” value was “not soluble”. For “MAHHHHHHMLKHPQAALLFVHNSSDLFQNDTLGVLRNKTKIQNKKKISRFKIQSSEERHTDGGLHYDLTPENVEKVLNLIRPKLQIDNGDVELVDIKNNDLYIKLLGNCVTCSSNSVTVSQVIKKTLKMYIRNEKNEEPNVIITNFDEINEENIHSCLSDLKPYFDFLSKWHTGGGTPLGVMLGGRGSYSKEKRPFKGGDPSHSISSTPPPLKRAKRSTV”, the “soluble on expression in E. coli” value was “not soluble”. With “MAHHHHHHMLKSSIVLLRRGKPRPRAGMFPEKYRRVPTLLKPQQGGQQYFNEFLIRSANDALEAQQQGYGSAFRVGGSGAARILADGNATAADGIHDGEISSVHPRLPQADIDGVLQRSRAETIQAELKQLVAQDGFISQRGFNERLWYEQEHHRLRTHGDGVEASPSEVAATAAASSSTAEAVSATGEGRAVPERILGDDYFQSKFGYSLLKGRSPDASAVADNVKAYAQLDLWGEMPMYSRDFVFLYLVSRRRNTYAVAYDYDGKRLLPTYTAGNRGLKGGDRGFRGDGSTDNGHQVTSMYLNDLLPKIREARAASGRPLGRGEKIDLVVRVMGFYNGRQGAVRAVQDRSADFRVRYLEDVTPFPLNGPKMPRGVFR” the “soluble on expression in E. coli” value was “not soluble”. For “MAHHHHHHMLLLLEREHPAVHAAVERILRGDSKIPVSVVRDFDGCEYHIRVEWDKEEKEMSQTSGVDSKDTGSGEVGTVNVGGTASVTVSLRSFTPFAELNTHGNFYEVLTTLFPSELQKFVVCDTHKGDGEDFTVAVHIPSNVPAKMLKEAMHSTAQLRAWSFVPAFARQFELFLTNPEVVQPLQLHYHDGEEMVVYNNRGSFIVAIALRVPSKDDAVLTRHFLQAMVEVRKHERSFCGSSAFIFEQGGPPDSVVAVTGPRGRVRDPNTFWCSFQLYKQQMEPPPRLVETVMHLVNFRTTLAYHIRAGRTYMHGIMRKRVESSLQWLNKAKARVAEETKITIT”, the “soluble on expression in E. coli” value was “not soluble”. In the case of “MAHHHHHHMLLSDAEAKITAVLKSLLDTPRTTYEVENLYQLNCERIAAVRAALADMSGDYVDQLCERCGEAEKQVQAKRAAGVASTAAADNAFSLDFALEEAEGQNEAEIESAISAAAHGSRRPKKSSGKEKSKKKEGEERHKKKEKRTLDDEPLVAPLPAGGGSCENNAADKATSSPSTRWVVLSRDDDLTSSEVLPALSTSDRVKCEAVPNTPLARVFFTEEVTRDGASCQCAVELYRCVVIAMRYGEPQLSWAECEKMMQSQVAAASKAGTIEDEGFDSRSAKRAGARSPKTSSDGDGEGAEDDSTSLVEEMTLSEQLIAQYDQAQQAEEEEEDADTLTLPRDISERFQQRLHGFTDEVWVILLCHGGYFAGGVFARGTCITHKAFQRYVVRKKQGGKQSSNAKDAGSYNSVGSQIRAVQEVKWRVDVRDILLDWMPYIQAASFILYAAPGPQNRAVLTDFSLLPAVASVGGRKGVSPIQLKDPRVSRVPLTTHRPTFEEVRRIYGVCSRCSLLYVRQEEAQERNTN”, the “soluble on expression in E. coli” value is reported as “not soluble”. With “MAHHHHHHMLQLTVEDLTPEAIAALEVQCKAQAEKVNQLEEAMGLLQKELDDARKKYRSTSKAVQWRRLMAEVENDEDIANITVMMQEALADFYKTMQPPDDYDESREGISFCDTDDYADLTSVETKVDEFLLAIRRLVGENCASPEDDGDRRHQRRRALLMLLVLTINAARITDTPTEDAASLMEEQQDNIASLWQTLLHTDSGLVEAEKSEWKDIVSSFLGPPYDTST” the “soluble on expression in E. coli” value was “soluble”. In the case of “MAHHHHHHMLRCAPSKLFRATPLLRVWAAEEDDASAPRTTFRNVRPGRLLRLWRQMRHRAWMLYAWDEEWVSPMQEGYLHQQRLEQVCFAPLSAYGVVPGSYCDPLLYNTKSTSPFRWHVANVQGDIVGHWYMDADELFRIEDWQPREPDDPLEMFPRPPPMLLRWDESVDEHGNRAFRYRYHYDMMGPTGKWEAYPRCPFSHLYHGGPDQHGRAEGYGFQQGHLLRCDEAEEEVLRRIMEGEDREWEMVKRTEAVQEPWSYPGKIRPRDFEGAVERAKARFRERVRHGKETDPSEDPEYDLVQASEYVEPRDGRRAEWRHLWASGRKPGESLPFHVAFNDGLCFEGNEGGPPAHPAAHYEAAHYEAPYGRYEDADAAAARAAEAAHNAACEQSLSEAMARHRRLFGDTSGAPSGPKAPLPTGCRPMRCAPGPPLPSGRSRSSGARAVGSGPVCGAGARDGESEGEGRGGEAPLGYGARACSWRRREGWV”, the “soluble on expression in E. coli” value is reported as “not soluble”. With “MAHHHHHHMLRCSCARRRGVYHNAPSVYPFVKPFHDTPYDQDRGRHDSVGQRYRKNSWPEWMDNGADGTGYGIGLHRTHPLSRLRGNLKRSPSHVPRVLGMMIQGVWHKSGVKLYFRGGKPPNPSVHPYLTGEPCPLYGWKVTDESVIRQFNMPSIDGTNFRYKPYVALQERKIMGVQVPSDSVSLASGRTTESKPLAKRLFFWR” the “soluble on expression in E. coli” value was “not soluble”. In the case of “MAHHHHHHMLRRTVARFMASEAIGPAHPDILWGFMDGRYAGPGWVSWIKQLPVETLTMQGGTSMTNMNDRAGVILDPEDPRHSMALIQWGPMNHYDGAFMQLSYGDYGEIKKGSRLMQVLYDHYLEPFSMNRVCAQLYFYQKVPNNYHASVEASAEYIGQTASLVGQVVVGMGSVIMEGVTVKGDTNCVYIAEGVQVMENTCIVSDAPTDLLAYQRHEAINPYQQWDGMDGVCRIMQNTMIEPNCFLDSCSIGPFNRIGHNTKILKGVTTGTMVHILPGSVVTADTRIGDGELWGGAPAVKLGKVSKFEWKRPYYASLLHKECVVESYRNMSRYGDQVVYFQDEMGKLDTLMLQFESDITPSVKAKMKEFVQGREPFHHMLTRITQGWSPANRPDDKNYNLCPPLPAVKLFAEHNNDSSDSSLHGTYMNITNIFNDFRW”, the “soluble on expression in E. coli” value is reported as “not soluble”. For “MAHHHHHHMLSRVAAVKAPRTHNRRRVTGSSGRTREGGESEPRRPNMSRRVFPSAVLLLLVTMMCCDRGAATAQVEKATDASTPSGSALTGAITAEGSASGGVERPQRVDLFVPQTKQVLQKTGTDSGRRDSFVSPSLVSAGGVIAAFAEGHINAKNPIPNQLSRLLMLLRSTSTLRGNGPLLLKRSIKKEWSARTVLGKAEGNESFDVVRHPTTTMKGNKMFLLAGSTALSDLNGSWKEGSLEIKLVVGEVTKPTDSEQSKRIEWGEIKSPLNGSTLAAHKGNLTECLASGGSGVLMEDGTLVFSLMAVNEKNDGVYSMIIYSKDNGSTWALSEDISPAKCLNPRITEWEGSLLMIVDCENDQRV”, the “soluble on expression in E. coli” value was “not soluble”. With “MAHHHHHHMLVRSITKCVVPLIKATSYTSSYIVEHPPTPVRLTSMLPLHNKSMPTPLLDPERLQEISCGTGQPAQRGRRKPLVWKRRKPWFDHQWSLDLQRIKKGPETPHFPDGTPFTQIRSFQSFAGRSWKINAGRRRKIRLSLKRGRRKLL” the “soluble on expression in E. coli” value was “not soluble”. In the case of “MAHHHHHHMMAHRCAFQTIASPALTQREVEFTKSAWIAGLRPDQRGAQQLREVNVDFPLLSRDVSCVRCGGTIVTAAIACELVEPFPCRPKHGIIDFSVRQPYTERDSSAKTAELKKLTAFLERLIKGGGVVDTEGLCVLPGRRVWSISVDVTVLNDEGNVTDVAVWATVAVLLHYRRPELTIRGDSVILHPTHERDPVPLSIHHTPLSFSFAITMAPGDRNKLARGRRDSQEALEVVVDPTFAEATAASSSVVVAVNAEGQVCSVSKSEGSCIHLNEVNHCMETASLLAPHILSLIRDAMAAHDKRRQEVLKRMFLWAQKRSGVTSEATEPEPAKKLKTET”, the “soluble on expression in E. coli” value is reported as “not soluble”.
